Here are results for 16 molecules from publication PMC4840434, “The interactome of Streptococcus pneumoniae and its bacteriophages show highly specific patterns of interactions among bacteria and their phages” (Scientific Reports, 2016).

What all share (assay): pull-down; LuMPIS: N-terminally MBP-tagged bait pulled down on amylose beads, N-terminally eGFP-luciferase-tagged prey detected by luciferase activity; both expressed in HEK cells, raw protein extracts; quadruplicates; LIR against MBP without ORF
In assay [1] the target is Dp-1 orf4, Queuosine biosynth. protein QueE (LuMPIS construct) (phage Dp-1 of S. pneumoniae).
The target of assay [2] is Cp-1 orf16, Hypothetical protein (LuMPIS construct) (phage Cp-1 of S. pneumoniae).
Assay [3] addresses Dp-1 orf39, Zinc finger protein (LuMPIS construct) (phage Dp-1 of S. pneumoniae).
In assay [4] the target is Dp-1 orf31, Hypothetical protein (LuMPIS construct) (phage Dp-1 of S. pneumoniae).
For assay [5], the target named is Dp-1 orf9, No similarity (LuMPIS construct) (phage Dp-1 of S. pneumoniae).
Assay [6] deals with Dp-1 orf32, Hypothetical protein (LuMPIS construct) (phage Dp-1 of S. pneumoniae).
Assay [7] addresses Dp-1 orf16, NAD-dependent DNA ligase (LuMPIS construct) (phage Dp-1 of S. pneumoniae).
Assay [8] addresses Dp-1 orf48, Hypothetical protein (LuMPIS construct) (phage Dp-1 of S. pneumoniae).
Assay [9] concerns the target Dp-1 orf14, dUTPase (LuMPIS construct) (phage Dp-1 of S. pneumoniae).
For assay [10], the target named is Dp-1 orf60, Hypothetical protein (LuMPIS construct) (phage Dp-1 of S. pneumoniae).
For assay [11], the target named is Dp-1 orf34, Hypothetical protein (LuMPIS construct) (phage Dp-1 of S. pneumoniae).
In assay [12] the target is Dp-1 orf44, Rho-like domain lipoprotein (LuMPIS construct) (phage Dp-1 of S. pneumoniae).
Assay [13] concerns the target Dp-1 orf29, Hypothetical protein (LuMPIS construct) (phage Dp-1 of S. pneumoniae).
The target of assay [14] is Dp-1 orf47, Hypothetical protein (LuMPIS construct) (phage Dp-1 of S. pneumoniae).
The target of assay [15] is Cp-1 orfc, Hypothetical protein (LuMPIS construct) (phage Cp-1 of S. pneumoniae).
For assay [16], the target named is Cp-1 orf17, Tail protein N (LuMPIS construct) (phage Cp-1 of S. pneumoniae).
Assay [17] deals with Cp-1 orfb, Hypothetical protein (LuMPIS construct) (phage Cp-1 of S. pneumoniae).
The target of assay [18] is Dp-1 orf51, Hypothetical protein (LuMPIS construct) (phage Dp-1 of S. pneumoniae).
Assay [19] concerns the target Dp-1 orf33, Hypothetical protein (LuMPIS construct) (phage Dp-1 of S. pneumoniae).
Assay [20] addresses Cp-1 orf6, Hypothetical protein (LuMPIS construct) (phage Cp-1 of S. pneumoniae).
For assay [21], the target named is Dp-1 orf18, DNA polymerase III, delta’ subunit HolB (LuMPIS construct) (phage Dp-1 of S. pneumoniae).

For the molecule “SP_2036, PTS system, IIA component (LuMPIS construct) (from UniProt A0A0H2URW0 1-161) (natural protein)”, the LIR (luminescence intensity ratio against MBP alone) in [1] stood at 454.

“SP_0259, Holliday junction DNA helicase RuvB (LuMPIS construct) (from UniProt Q97SR6 1-332) (natural protein)”: the LIR (luminescence intensity ratio against MBP alone) in assay [2] was determined as 12; in [3] it was 10; in [4], 4; in assay [5], 11; in assay [6], 3; in assay [7] it was 5.

As for “SP_1746, conserved hypothetical protein (LuMPIS construct) (from UniProt A0A0H2URF8 1-197) (natural protein)”, the LIR (luminescence intensity ratio against MBP alone) in assay [8] amounted to 3.

“SP_2125, conserved hypothetical protein (LuMPIS construct) (from UniProt A0A0H2URY4 1-113) (natural protein)”: in assay [9], the LIR (luminescence intensity ratio against MBP alone) is 45.

Consider “SP_2168, putative fucose operon repressor (LuMPIS construct) (from UniProt A0A0H2USI3 1-257) (natural protein)”, for which the LIR (luminescence intensity ratio against MBP alone) in assay [8] came out at 3; in [4], 5; in assay [5], 15.

In the case of “SP_2024, PTS system, IIA component (LuMPIS construct) (from UniProt A0A0H2US90 1-108) (natural protein)”, the LIR (luminescence intensity ratio against MBP alone) in [10] was 5.

In the case of “SP_2157, alcohol dehydrogenase, iron-containing (LuMPIS construct) (from UniProt A0A0H2USH2 1-383) (natural protein)”, the LIR (luminescence intensity ratio against MBP alone) in [11] is 35; in assay [12] it was 13.

“SP_2012, glyceraldehyde 3-phosphate dehydrogenase (LuMPIS construct) (natural protein)”: the LIR (luminescence intensity ratio against MBP alone) in assay [13] was 3.

In the case of “SP_0687, ABC transporter, ATP-binding protein (LuMPIS construct) (from UniProt A0A0H2UP48 1-213) (natural protein)”, in [14], the LIR (luminescence intensity ratio against MBP alone) is 4.

Consider “SP_0979, oligoendopeptidase F (LuMPIS construct) (natural protein)”, for which the LIR (luminescence intensity ratio against MBP alone) in assay [15] is 3; in assay [16], 14.

As for “SP_1213, conserved domain protein (LuMPIS construct) (from UniProt A0A0H2UQB9 1-424) (natural protein)”, the LIR (luminescence intensity ratio against MBP alone) in assay [17] amounted to 240.

With “SP_0446, acetolactate synthase, small subunit (LuMPIS construct) (natural protein)”, the values for the LIR (luminescence intensity ratio against MBP alone) in [11] and in assay [12] were 12 and 6, respectively.

B1: SP_1672, recombination protein RecR (LuMPIS construct) (natural protein)
chain: MLYPTPIAKLIDSYSKLPGIGIKTATRLAFYTIGMSADDVNEFAKNLLSAKRELTYCSICGRLTDDDPCSICTDPTRDQTTILVLEDSRDVAAMENIQEYHGLYHVLHGLISPMNGISPDDINLKSLMTRLMDSEVSEVIVATNATADGEATSMYLSRLLKPAGIKVTRLARGLAVGADIEYADEVTLLRAIENRTEL
Regarding B1, the LIR (luminescence intensity ratio against MBP alone) in [18] was 6.

B2: SP_1088, DNA repair protein RadC (LuMPIS construct) (natural protein)
chain: MYSISFQEDSLLPRERLAKEGVEALSNQELLAILLRTGTRQASVFEIAQKVLNNLSSLTDLKKMTLQELQSLSGIGRVKAIELQAMIELGHRIHKHETLEMESILSSQKLAKKMQQELGDKKQEHLVALYLNTQNQIIHQQTIFIGSVTRSIAEPREILHYAIKHMATSLILVHNHPSGAVAPSQNDDHVTKLVKEACELMGIVLLDHLIVSHSNYFSYREKTDLI
As to B2, the LIR (luminescence intensity ratio against MBP alone) in [19] was found to be 3.

B3: SP_1713, transcriptional regulator, NrdR family (LuMPIS construct) (natural protein)
chain: MRCPKCGATKSSVIDSRQAEEGNTIRRRRECDECQHRFTTYERVEERTLVVVKKDGTREQFSRDKIFNGIIRSAQKRPVSSDEINMVVNRIEQKLRGRNENEIQSEDIGSLVMEELAELDEITYVRFASVYRSFKDVSELESLLQQITQSSKKKKER
For B3, the LIR (luminescence intensity ratio against MBP alone) in assay [20] worked out at 6.

B4: SP_1584, GTP-sensing transcriptional pleiotropic repressor CodY (LuMPIS construct) (natural protein)
chain: MAHLLEKTRKITSILKRSEEQLQDELPYNAITRQLADIIHCNACIINSKGRLLGYFMRYKTNTDRVEQFFQTKIFPDDYVQGANMIYETEANLPVEHDMSIFPIESRDDFPDGLTTIAPIHVSGIRLGSLIIWRNDKKFEDEDLVLVEIASTVVGIQLLNFQREEDEKNIRRRTAVTMAVNTLSYSELRAVSAILGELNGNEGKLTASVIADRIGITRSVIVNALRKLESAGIIESRSLGMKGTYLKVLISDIFEEVKKRDY
On to B4, for which the LIR (luminescence intensity ratio against MBP alone) in assay [21] was found to be 6.
